Laboratory results published in patent publication US20230340055A1 (published 2023).
Like-named read-outs stand apart in the source and are kept apart here.

How the values were obtained:
[1] = molecular target: T1, IL-2Rβγ (dimeric intermediate affinity IL-2 receptor), human, on cells (human, UniProt P14784 27-551; P31785 23-369); test: cell-based or functional assay
T1 sequence (looked up) 1: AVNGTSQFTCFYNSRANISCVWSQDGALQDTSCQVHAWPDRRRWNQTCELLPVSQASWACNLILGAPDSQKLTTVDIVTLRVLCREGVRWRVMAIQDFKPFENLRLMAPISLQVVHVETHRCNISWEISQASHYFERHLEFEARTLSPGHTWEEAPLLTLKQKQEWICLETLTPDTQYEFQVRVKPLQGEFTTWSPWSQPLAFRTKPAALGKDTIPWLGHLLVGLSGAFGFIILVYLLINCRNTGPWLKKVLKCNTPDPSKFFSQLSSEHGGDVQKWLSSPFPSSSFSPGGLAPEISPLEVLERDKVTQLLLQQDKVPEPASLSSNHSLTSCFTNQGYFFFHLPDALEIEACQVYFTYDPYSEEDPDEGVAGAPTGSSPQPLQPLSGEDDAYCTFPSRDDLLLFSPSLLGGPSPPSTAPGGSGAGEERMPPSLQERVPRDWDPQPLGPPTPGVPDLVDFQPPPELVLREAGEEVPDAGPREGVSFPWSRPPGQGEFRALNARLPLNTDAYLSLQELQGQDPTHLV
T1 sequence (looked up) 2: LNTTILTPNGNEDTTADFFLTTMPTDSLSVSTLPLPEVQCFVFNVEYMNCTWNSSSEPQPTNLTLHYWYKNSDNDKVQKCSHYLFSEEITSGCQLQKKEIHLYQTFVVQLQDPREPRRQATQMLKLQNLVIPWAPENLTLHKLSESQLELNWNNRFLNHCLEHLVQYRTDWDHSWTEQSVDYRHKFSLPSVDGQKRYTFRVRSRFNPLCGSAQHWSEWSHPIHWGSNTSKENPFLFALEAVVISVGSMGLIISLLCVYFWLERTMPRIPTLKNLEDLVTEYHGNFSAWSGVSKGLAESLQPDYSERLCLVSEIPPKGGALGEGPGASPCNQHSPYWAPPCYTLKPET

[2] = molecular target: T2, IL-2Rαβγ (trimeric high-affinity IL-2 receptor), human, on cells (human, UniProt P01589 22-272; P14784 27-551; P31785 23-369); test: cell-based or functional assay
T2 sequence (looked up) 1: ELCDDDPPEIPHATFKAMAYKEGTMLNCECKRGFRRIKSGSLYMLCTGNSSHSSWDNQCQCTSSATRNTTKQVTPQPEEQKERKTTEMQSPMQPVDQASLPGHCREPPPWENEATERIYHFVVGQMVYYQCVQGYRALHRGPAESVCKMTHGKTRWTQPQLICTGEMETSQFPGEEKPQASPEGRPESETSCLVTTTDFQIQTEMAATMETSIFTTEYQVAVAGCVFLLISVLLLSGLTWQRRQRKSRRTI
T2 sequence (looked up) 2: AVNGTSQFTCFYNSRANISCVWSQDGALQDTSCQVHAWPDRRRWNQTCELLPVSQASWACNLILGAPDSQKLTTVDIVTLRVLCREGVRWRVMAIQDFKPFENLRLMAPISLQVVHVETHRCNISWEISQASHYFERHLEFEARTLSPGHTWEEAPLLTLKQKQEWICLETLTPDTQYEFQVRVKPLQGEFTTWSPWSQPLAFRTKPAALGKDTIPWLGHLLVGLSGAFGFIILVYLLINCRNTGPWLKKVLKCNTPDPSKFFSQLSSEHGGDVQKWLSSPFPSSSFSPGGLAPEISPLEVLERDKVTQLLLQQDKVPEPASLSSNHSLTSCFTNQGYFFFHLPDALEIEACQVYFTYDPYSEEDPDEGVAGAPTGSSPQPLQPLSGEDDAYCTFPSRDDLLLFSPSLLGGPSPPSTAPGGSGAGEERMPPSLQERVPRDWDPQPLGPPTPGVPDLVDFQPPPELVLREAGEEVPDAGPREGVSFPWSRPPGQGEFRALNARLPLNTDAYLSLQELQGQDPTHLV
T2 sequence (looked up) 3: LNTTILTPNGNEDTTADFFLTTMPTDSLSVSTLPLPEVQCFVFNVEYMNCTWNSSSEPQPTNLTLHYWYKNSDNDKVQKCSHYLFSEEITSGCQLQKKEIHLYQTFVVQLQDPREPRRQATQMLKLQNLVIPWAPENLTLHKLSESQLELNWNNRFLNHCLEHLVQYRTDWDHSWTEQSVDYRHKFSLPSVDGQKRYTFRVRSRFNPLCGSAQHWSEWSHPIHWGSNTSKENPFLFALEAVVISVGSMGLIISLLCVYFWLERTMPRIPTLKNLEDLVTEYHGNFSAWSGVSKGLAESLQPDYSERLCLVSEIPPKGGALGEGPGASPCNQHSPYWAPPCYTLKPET

[3] = molecular target: T1, IL-2Rβγ (dimeric intermediate affinity …); test: cell-based or functional assay; remark: listed apart in the source
[4] = molecular target: T2, IL-2Rαβγ (trimeric high-affinity IL-2 …); test: cell-based or functional assay; remark: listed apart in the source
[5] = molecular target: T1, IL-2Rβγ (dimeric intermediate affinity …); test: cell-based or functional assay; remark: listed apart in the source
[6] = molecular target: T2, IL-2Rαβγ (trimeric high-affinity IL-2 …); test: cell-based or functional assay; remark: listed apart in the source
[7] = molecular target: T3, Human IL-2 Receptor alpha, Fc-Tag (Symansis, New Zealand) (human, UniProt P01589 22-240); test: SPR; KD to IL-2Rα divided by KD to IL-2Rβ of the same compound
T3 construct: extracellular domain; Bought reagent; also called IL-2Rα; IL-2Rα-Fc; not shown: Fc-Tag (captured by anti-human IgG (Fc) antibody)
T3 sequence (looked up): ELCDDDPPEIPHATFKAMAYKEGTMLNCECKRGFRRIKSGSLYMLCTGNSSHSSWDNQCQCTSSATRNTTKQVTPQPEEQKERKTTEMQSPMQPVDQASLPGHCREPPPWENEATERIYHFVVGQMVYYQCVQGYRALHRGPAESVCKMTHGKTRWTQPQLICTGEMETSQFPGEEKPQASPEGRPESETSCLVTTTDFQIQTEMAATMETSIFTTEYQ
Method: (§1) For the determination of binding kinetics to IL-2Rα the following chip preparation was used: Human IL-2 Receptor alpha, Fc-Tag (Symansis, New Zealand) was diluted in HBS-EP running buffer (GE Healthcare, 10 mM HEPES, 150 mM NaCl, 3 mM EDTA, 0.05% Surfactant P20, pH 7.4) to approx. 0.67 µg/mL and immobilized at a flow rate of 50 µL/min for 60 s to achieve 80 - 100 response units (RU).
(§2) For the determination of binding kinetics to IL-2Rβ the following chip preparation was used: Human IL-2 Receptor beta, Fc-Tag (Symansis, New Zealand) was diluted in HBS-EP running buffer (GE Healthcare, 10 mM HEPES, 150 mM NaCl, 3 mM EDTA, 0.05% Surfactant P20, pH 7.4) to around 0.80 µg/mL and immobilized at a flow rate of 50 µL/min for 60 s to achieve 140 - 180 response units (RU).
(§3) (50 µL/min flow rate, 60 s contact time, 300 s dissociation time). Double referenced data (subtracted data from the reference flow cell and the buffer only samples) was analysed via a kinetic fit (1:1 binding model) to determine KD, kₐ and kd. Regeneration after each cycle was performed with 3 M MgCl₂.

[8] = molecular target: T3, Human IL-2 Receptor alpha, Fc-Tag …; test: calculated from the SPR KD values of Example 7; reference protein 5a
Method: as §1, §2, §3

[9] = molecular target: T4, Human IL-2 Receptor beta, Fc-Tag (Symansis, New Zealand) (human, UniProt P14784 27-240); test: SPR (Biacore T200), IL-2Rβ-Fc captured on anti-human IgG (Fc) CM5 chip, IL-2 as analyte, multi-cycle kinetics, 1:1 kinetic fit, 25 C
T4 construct: extracellular domain; Bought reagent; also called IL-2Rβ; IL-2Rβ-Fc; not shown: Fc-Tag (captured by anti-human IgG (Fc) antibody)
T4 sequence (looked up): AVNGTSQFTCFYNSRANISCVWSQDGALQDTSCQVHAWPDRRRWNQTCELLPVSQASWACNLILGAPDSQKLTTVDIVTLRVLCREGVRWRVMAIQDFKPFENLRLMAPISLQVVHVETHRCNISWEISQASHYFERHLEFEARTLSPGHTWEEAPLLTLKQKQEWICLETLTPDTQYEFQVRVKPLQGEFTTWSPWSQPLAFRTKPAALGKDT
Method: as §2, §3

[10] = molecular target: T5, IL-2-Rα/β/γ on the murine CTLL-2 T lymphocyte cell line (murine, UniProt P01590 22-268; P16297 27-539; P34902 23-369); test: cell-based or functional assay
T5 sequence (looked up) 1: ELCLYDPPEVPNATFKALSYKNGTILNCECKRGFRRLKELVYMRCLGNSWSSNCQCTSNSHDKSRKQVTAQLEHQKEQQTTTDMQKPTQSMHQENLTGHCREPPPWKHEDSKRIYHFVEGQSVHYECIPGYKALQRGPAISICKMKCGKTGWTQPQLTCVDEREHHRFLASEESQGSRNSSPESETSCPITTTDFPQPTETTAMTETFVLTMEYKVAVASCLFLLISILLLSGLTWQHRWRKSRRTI
T5 sequence (looked up) 2: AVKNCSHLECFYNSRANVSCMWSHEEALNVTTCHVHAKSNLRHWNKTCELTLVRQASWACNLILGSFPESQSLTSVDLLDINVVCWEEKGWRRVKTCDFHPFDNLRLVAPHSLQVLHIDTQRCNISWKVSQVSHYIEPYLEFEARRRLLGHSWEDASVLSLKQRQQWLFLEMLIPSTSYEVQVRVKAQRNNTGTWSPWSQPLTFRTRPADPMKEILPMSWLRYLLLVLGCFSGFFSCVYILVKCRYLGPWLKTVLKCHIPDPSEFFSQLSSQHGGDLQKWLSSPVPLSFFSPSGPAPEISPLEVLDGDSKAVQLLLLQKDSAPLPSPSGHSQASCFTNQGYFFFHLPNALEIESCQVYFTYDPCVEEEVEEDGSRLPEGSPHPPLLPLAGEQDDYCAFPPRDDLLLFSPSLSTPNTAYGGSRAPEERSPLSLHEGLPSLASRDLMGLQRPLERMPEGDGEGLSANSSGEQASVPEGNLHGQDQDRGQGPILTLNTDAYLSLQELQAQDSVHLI
T5 sequence (looked up) 3: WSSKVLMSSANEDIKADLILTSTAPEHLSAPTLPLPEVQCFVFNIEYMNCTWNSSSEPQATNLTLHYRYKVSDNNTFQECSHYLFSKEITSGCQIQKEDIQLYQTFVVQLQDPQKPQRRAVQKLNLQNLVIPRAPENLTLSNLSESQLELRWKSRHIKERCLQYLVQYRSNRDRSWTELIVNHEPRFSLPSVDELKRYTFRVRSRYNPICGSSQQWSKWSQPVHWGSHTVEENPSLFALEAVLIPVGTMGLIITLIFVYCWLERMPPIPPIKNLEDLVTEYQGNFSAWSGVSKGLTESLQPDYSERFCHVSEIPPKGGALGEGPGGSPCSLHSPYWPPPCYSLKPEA

[11] = molecular target: T1, IL-2Rβγ (dimeric intermediate affinity …); test: cell-based or functional assay; remark: listed apart in the source

B1: protein 1a (ligand)
chain: APTSSSTKKTQLQLEHLLLDLQMILNGINNYKNPKLTFGNSTKFYMPKKATELKHLQCLEEELKPLEEVLNLAQSKNFHLRPRDLISNINVIVLELKGSETTFMCEYADETATIVEFLNRWITFSQSIISTLTHHHHHH
modifications: N-glycosylated (at least 90% by SDS-PAGE shift, removed by PNGase F)
[1]
  Ave EC50, pSTAT5 MFI, CD8+ T cells (human whole blood): 12.6 ng/ml
  Ave EC50, pSTAT5 MFI, NK cells (human whole blood): 3.07 ng/ml
  Fold reduction in potency vs WT-IL2 (1d), pSTAT5 MFI, CD8+ T cells: 1.44 fold
  Fold reduction in potency vs WT-IL2 (1d), pSTAT5 MFI, NK cells: 1.34 fold
[2]
  Ave EC50, pSTAT5 MFI, T regulatory cells (human whole blood): 7.93 ng/ml
  Fold reduction in potency vs WT-IL2 (1d), pSTAT5 MFI, T regulatory cells: 437 fold
[3]
  Ave EC50, pSTAT5 percent positive, CD8+ T cells (human whole blood): 1.69 ng/ml
  Ave EC50, pSTAT5 percent positive, NK cells (human whole blood): 0.371 ng/ml
  Fold reduction in potency vs WT-IL2 (1d), pSTAT5 percent positive, CD8+ T cells: 1.58 fold
  Fold reduction in potency vs WT-IL2 (1d), pSTAT5 percent positive, NK cells: 2.01 fold
[4]
  Ave EC50, pSTAT5 percent positive, T regulatory cells (human whole blood): 1.06 ng/ml
  Fold reduction in potency vs WT-IL2 (1d), pSTAT5 percent positive, T regulatory cells: 598 fold

B2: protein 1f (ligand)
chain: APTSSSTKKTQLQLEHLLLDLQMILNGINNYKNPKLTFGNSTKFYMPKKATELKHLQCLEEELKPLEEVLNLAQSKNFHLRPRDLISNINVIVLELKGSETTFMCEYADETATIVEFLNRWITFSQSIISTLT
modifications: N-glycosylated at the introduced N-glycosylation site (motif FGNST, peptide LTFGNSTK; heterogeneous glycans); heterogeneous O-glycosylation at the wildtype O-glycosylation site
notes: also called N-glycosylated IL2 (1f)
[5]
  Ave EC50, pSTAT5 MFI, CD8+ T cells (human whole blood): 54.8 ng/ml
  Ave EC50, pSTAT5 MFI, NK cells (human whole blood): 7.35 ng/ml
  Fold reduction in potency vs WT-IL2 (1d), pSTAT5 MFI, CD8+ T cells: 2.13 fold
  Fold reduction in potency vs WT-IL2 (1d), pSTAT5 MFI, NK cells: 1.22 fold
[6]
  Ave EC50, pSTAT5 MFI, T regulatory cells (human whole blood): 33.5 ng/ml
  Fold reduction in potency vs WT-IL2 (1d), pSTAT5 MFI, T regulatory cells: 372 fold
[7]
  KD-Ratio (α/β): > 4.02
[8]
  ratio of Ratio protein 1f to Ratio protein 5a (KD to IL-2Rα / KD to IL-2Rβ): > 200
[9]
  Kd: 993 nM

B3: conjugate release mixture 8 (other)
chain: APTSSSTKKTQLQLEHLLLDLQMILNGINNYKNPKLTFGNSTKFYMPKKATELKHLQCLEEELKPLEEVLNLAQSKNFHLRPRDLISNINVIVLELKGSETTFMCEYADETATIVEFLNRWITFSQSIISTLT
modifications: glycosylated as protein 6; residual conjugate 7 in the mixture carries one 40 kDa mPEG-linker on a primary amine of the N-terminus or a lysine side chain
[10]
  EC50 CTLL-2, STAT5 phosphorylation: 1.57 µg/mL
  Ratio (E50 CTLL-2 cells/EC50 HH cell): 39.5
[11]
  EC50 HH cells, STAT5 phosphorylation: 0.0398 µg/mL
